Laboratory results reported in the RNAGym collection of RNA variant scans (doi:10.7554/elife.80360).

B1: Hairpin Ribozyme (parent)
chain: GUCCUCUUUCACGUGCGCGUGAAAGAGAGAAGUGAACCAGAGAAACACACGUUGUGGUAUAUUACCUGGUA

Variants of: B1
Assay: self-cleavage, relative activity (ratio to wild type); higher = more cleavage; co-transcriptional

Variant	self-cleavage
CUCCUCUUUCACGUGCGCGUGAAAGAGAGUAGUGAACCAGAGAAACACACGUUGUGGUAUAUUACCUGGUA [G1C A30U]	0.0862
CUCCUCUUUCACGUGCGCGUGAAAGAGAGAAGUGAACCAGAGAAUCACACGUUGUGGUAUAUUACCUGGUA [G1C A45U]	0.217
CUCCUCUUUCACGUGCGCGUGAAUGAGAGAAGUGAACCAGAGAAACACACGUUGUGGUAUAUUACCUGGUA [G1C A24U]	0.19
CUCCUCUUUCACGUGCGCGUGAAAGAGAGAAGUGAACCAGAGAAACAUACGUUGUGGUAUAUUACCUGGUA [G1C C48U]	0.189
CUCCUCUUUCACGUGCGCGUGAAAGAGAGAAGUGAACCAGAGAAACAGACGUUGUGGUAUAUUACCUGGUA [G1C C48G]	0.086
CUCUUCUUUCACGUGCGCGUGAAAGAGAGAAGUGAACCAGAGAAACACACGUUGUGGUAUAUUACCUGGUA [G1C C4U]	0.228
CUCAUCUUUCACGUGCGCGUGAAAGAGAGAAGUGAACCAGAGAAACACACGUUGUGGUAUAUUACCUGGUA [G1C C4A]	0.126
CUCCUCUUUCACGUGCGCGUGAAAGAGAGACGUGAACCAGAGAAACACACGUUGUGGUAUAUUACCUGGUA [G1C A31C]	0.284
CUCCUCUUUCACGUGAGCGUGAAAGAGAGAAGUGAACCAGAGAAACACACGUUGUGGUAUAUUACCUGGUA [G1C C16A]	0.0908
CUGCUCUUUCACGUGCGCGUGAAAGAGAGAAGUGAACCAGAGAAACACACGUUGUGGUAUAUUACCUGGUA [G1C C3G]	0.246
CUCCUCUUUCACGUGCGCGUGAAAGAGAGAAGUGAACCAGAGAAACCCACGUUGUGGUAUAUUACCUGGUA [G1C A47C]	0.0859
CUCCUCUUUCACGUGCGCGUGAAAGAGCGAAGUGAACCAGAGAAACACACGUUGUGGUAUAUUACCUGGUA [G1C A28C]	0.262
AUCCUCUUUCACGUGCGCGUGAAAGAGAGAAGUGAACCAGAGAAACACACGUUGUGGUAGAUUACCUGGUA [G1A U60G]	0.194
AUCCUCUUUCACGUGCGCGUGAAAGAGAGAAGUGAACCAGAGAAACACACGUUGUGGUAUACUACCUGGUA [G1A U62C]	0.133
AUCCUCUUUCACGUGCGCGUGAAAGAGAGAAGUGAACCAGAGAAACACACGUUGUGGUAUAGUACCUGGUA [G1A U62G]	0.0492
AUCCUCUUUCACGUGCGCGUGAAAGAGAGAAGUGAACCAGAGAAACACACGUUGUGGUAUAUUACCAGGUA [G1A U67A]	0.193
AUCCUCUUUCACGUGCGCGUGAAAGAGAGAAGUGAACCAGAGAAACACACGUUGUGGUAUAUUACCGGGUA [G1A U67G]	0.116
CUCCUCUUUCACGUGCGCGUGAAAGAGAGAAGUGAACCAGAGAAACACACGUUGUGGUAUAUUACCUGGUG [G1C A71G]	0.313
CUCCUCUUUCACGUGCGCGUGAAAGAGAGAAGUGAACCAGAGAAACACACGUUGUGGUAUAUUCCCUGGUA [G1C A64C]	0.186

Variant	self-cleavage
CUCCUCUUUCACGUGCGCGUGCAAGAGAGAAGUGAACCAGAGAAACACACGUUGUGGUAUAUUACCUGGUA [G1C A22C]	0.274
CUCCUCUUUCACGUGCGCGUGAAAGAGAGAAGUGAACCAGAGUAACACACGUUGUGGUAUAUUACCUGGUA [G1C A43U]	0.171
CUCCUCUUUCACGUGCGCGUGAAAGAGAGAAGUGAACCAGAGCAACACACGUUGUGGUAUAUUACCUGGUA [G1C A43C]	0.0543
CUCCUCUUUCACGUGCGCGUGAAAGAGAGAAGUGAACCAGAGAAACACCCGUUGUGGUAUAUUACCUGGUA [G1C A49C]	0.159
CUCCUCUUUCACGUGCGCGUGAAAGAGAGAAGUGAACCAGAGAAACACUCGUUGUGGUAUAUUACCUGGUA [G1C A49U]	0.252
CUCCUCUUUCACGUGCGCGUGAAAGAGAGAAGUGAACCAGAGAAACACGCGUUGUGGUAUAUUACCUGGUA [G1C A49G]	0.315
AUCCUCUUUCACGUGCGCGUGAAAGAGAGAAGUGAACCAGAGAAACACACGUUGUGGUAUAUUACCUGGGA [G1A U70G]	0.0827
CUCCUCUUUCACGUGCGCGUGAAAGAGAGAAGUGAACCUGAGAAACACACGUUGUGGUAUAUUACCUGGUA [G1C A39U]	0.187
CUCCUCUUUCACGUGCGCGUGAAAGAGAGAAGUGCACCAGAGAAACACACGUUGUGGUAUAUUACCUGGUA [G1C A35C]	0.0578
AUCCUCUUUCACGUGCGCGUGAAAGAGAGAAGUGAACCAGAGAAACACACGUUGUGGUAUAUGACCUGGUA [G1A U63G]	0.284
AUCCUCUUUCACGUGCGCGUGAAAGAGAGAAGUGAACCAGAGAAACACACGUUGUGGUAUAUAACCUGGUA [G1A U63A]	0.146
CUCCUCUUUCACGUGCGAGUGAAAGAGAGAAGUGAACCAGAGAAACACACGUUGUGGUAUAUUACCUGGUA [G1C C18A]	0.177
CUCCUCUUUCACGUGCGUGUGAAAGAGAGAAGUGAACCAGAGAAACACACGUUGUGGUAUAUUACCUGGUA [G1C C18U]	0.139
CUCCUCUUUCACGUGCGGGUGAAAGAGAGAAGUGAACCAGAGAAACACACGUUGUGGUAUAUUACCUGGUA [G1C C18G]	0.307
CUCCUCUUUCACGUGCGCGUGAAAGAGAGAAGUGAACCAGAGAUACACACGUUGUGGUAUAUUACCUGGUA [G1C A44U]	0.295
CUCCUCUUUCACGUGCGCGUGAAAGAGAGAAGUGAACCAGUGAAACACACGUUGUGGUAUAUUACCUGGUA [G1C A41U]	0.229
CUCCUCUUUCACGUGCGCGUGAAAGAGAGAAGUGAACCAGCGAAACACACGUUGUGGUAUAUUACCUGGUA [G1C A41C]	0.411
CUCCUCUUUCACGUGCGCGUGAAAGAGAGAAGUGAACGAGAGAAACACACGUUGUGGUAUAUUACCUGGUA [G1C C38G]	0.112
CUCCUCUUUCACGUGCGCGUGAAAGAGAGAAGUGAACAAGAGAAACACACGUUGUGGUAUAUUACCUGGUA [G1C C38A]	0.281
